Reference: the RNAGym collection of RNA variant scans (doi:10.1073/pnas.2313332121)
This sample holds only a part of the variants without activity.

B1: TPR 5TU (parent)
chain: GGAUCUUCUCGAUCUAACAAAAAAGACAAAUCUGCCACAAAGCUUGAGAGCAUCUUCGGAUGCAGAGGCGGCAGCCUUCGGUGGCGCGAUAGCGCCAACGUUCUCAACUAUGACACGCAAAACGCGUGCUCCGUUGAAUGGAGUUUAUCAUG

Variants of: B1
Assay: polymerase ribozyme fitness, log enrichment relative to wild type (log ratio); higher = more active; in vitro selection for triplet polymerase activity
How it was run: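 Input and output libraries were sequenced on Illumina after a single in vitro selection round, run in triplicate on PCR-built, transcribed mutant libraries of each subunit of a heterodimeric triplet polymerase ribozyme. Selection annealed libraries to a biotinylated primer, the partner subunit and triplets, incubated them frozen at −7 °C, then gel-excised extended constructs for streptavidin-bead capture and RT-PCR. Genotypes with ≥10 input reads and ≥1 read per output were kept. Fitness is the logarithm, taken in base 2, of genotype enrichment divided by wild-type enrichment, using inverse-variance-weighted replicate averages.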

Variant | polymerase ribozyme fitness (log ratio)
GGAUCUUAUCGAUCUAACAAAAAAGACAAAUCUGCCACAAGGCUUGAGAGCAUCUUCGGAUGCAGAGGCGGCAGCCUUCGGUGGCGCGAUAGCGCCAACGUUCUCAACUAUGACACGCAAAACGCGUGCUCCGUUGAAUGGAGUUUAUCAUG [C8A A41G] | -4.12
GGAUCUUAUCGAUCUAACAAAAAAGACAAAUCUGCCACGAAGCUUGAGAGCAUCUUCGGAUGCAGAGGCGGCAGCCUUCGGUGUCGCGAUAGCGCCAACGUUCUCUACUAUGACACGCAAAACGCGUGCUCCGUUGAAUGGAGUUUAUGAUG [C8A A39G G84U A106U C149G] | ≤ -4.2
GGAUCUUAUCGAUCUAACAAAAAAGACAAAUCUGCCACAAAGCUUGGGCGCAUCUUCGCUUGCAGAGGCGGCAGCCUUCGGUGACGCGAUAGCGCCAACGUUCUCAACUAUGACACGCAAAACGGGUGCUCCGUUGAAUGGAGUUUAUCAUG [C8A A47G A49C G59C A60U G84A C125G] | ≤ -4.2
GGAUCUUAUCGAUCUAACAAAAAAGACAAAUCUGCCACAAAGCUUGAGGGCAUCUUCGGAUGCAGAGGCGGCAACCUUCGGUGGCUCGAUAGCGCCAACGUUCUCAACUAUGACACGCAAAACGCGUGCUCCGUUGAAUGUAGUUUAGCAUG [C8A A49G G74A G86U G141U U148G] | ≤ -4.2
GGAUCUUAUGGAUCUAAUAAUAAAGACAAAUCUGCCACAAAGCUUGAGAGCAUAUUCGGAUGCAGAGGCGGCAGCCUUCGGUGGCGUGAUAGCGCCAACGUUCUCAACUAUGACACGCAGAACGCGUGCUCCGUUGAAUGGAGUUUAUCAUG [C8A C10G C18U A21U C54A C87U A120G] | ≤ -4.2
GGAUCUUAUCGAUCUAACAAAAAAGACAAAUCUGCCACAAAGCUUGAGAGCAUCUUCGGAUGCCGAGGCGGAAGCCUUCGGUGGCGCGAUAGCGUCAACGUUCUCAACUAUGACAGGCAACACGCGUGCUCCGUUGACUGGAGUUUAUCAUG [C8A A64C C72A C95U C116G A121C A138C] | ≤ -4.2
GGAUCUUAUCGAUCUAACAAAAAAGACAAAUCUGCCACAAAGCUUGAGAGCCUCUUCGGAUGCAGAGGCGGCAGCCUUCGGUGGCGAGAUAGCGCCAACGUUCUCAACUAUGACACGCAAAACGCGUGCUCCGUUGAAUGGAGUUUAUCAUG [C8A A52C C87A] | ≤ -4.2
GGAUCUUAUCGAUCUAACAAAAAAGACAAUUCUGCCACAUAGCUUGACAGCAUCUUCGGAUGCAGAGGCGGCAGCCUUCGGUGACGCGAUAGCGCCAACGUUCUCAACUAUGUCACGCAAAACGCGUGCUCAGUUGAAUGGAGUUUAUCAUG [C8A A30U A40U G48C G84A A113U C132A] | ≤ -4.2
GGAUCUUAUCGAUCUAACAAAAAAGACAAAUCUGCCACAAAGCUUGGGGGCCUCAUCGGAUGCAGAGGCGGCAGCCUUCGGUGGCGCUAUAGCGCCAACGUUCACAACUAUGACACGCUAAACGCGUGCUCCGUUGAAUGGAGUUCAACAUG [C8A A47G A49G A52C U55A G88U U104A A119U U146C U148A] | ≤ -4.2
GGAUCUUAUCGAUCUAACAAAAAAGACAAAUCUGCCACAAAGCUUGAGAGCAUCUUCGGAUGCAGAGGCGGCUGCCUUCGGUAGCGCGAUAGUGCCAACGUUCUCAACUAUGACACGCAAAACGCGUGCUCCGUUGACUGGAGUCUAUCAUG [C8A A73U G83A C93U A138C U145C] | ≤ -4.2
GGAUCUUAUCGAUCUAACAAAAAAGACAAAUCUGCCACAACGCUUGAGAGCAUCUUCGGAUGCAGUGGAGGCAGCCCUCGGUCGCGCGAUAGCGCCAACGUUCUCAACUAUGACACGCAAAACGCUUGCGCCGUUGAAUGCAGUUUAUCAUC [C8A A41C A66U C69A U77C G83C G126U U130G G141C G152C] | ≤ -4.2
GGAUCUUAUCGAUCUAACAAAAAAGACAAAUCUGCCACAAAGCUUGAGAGCCUCUUCGGAUGCAGAGGCGGCAGUCUUCGGUGGCGCGAUAGCGGUAACGUUCUCAACAAUGACACGCAAAACGCGUGCUCCGUUGAAUGGAGUUUAUCAUG [C8A A52C C75U C95G C96U U109A] | ≤ -4.2
GGAUCUUAUUGAUCUAACAAAAAAGACAAAUCUGCCACAAAGCUUGAGAGCAUCUUCGGAUGCAGAGGCGGCAGACUUCGGUGGCACGAUAGCGCCAUCGUUCUCAACUAUGACACGCAAAACGCGUGCUCCGUUGACUGGAGUUUAUCAUG [C8A C10U C75A G86A A98U A138C] | ≤ -4.2
GGAUCUUAUCGAUCUAACAAAAAAGUCAAAUCUGCCCCAAAGCUUGAGAGCAUCUUCGAAUGCAGAGGCGGCAGCCUUCGGUGGCGCGAUAGUGCCAACGUUCUCAACUAUGACACGCAAAACGCGUGCUCCGUUGAAUGGAGUUUAUCAUG [C8A A26U A37C G59A C93U] | ≤ -4.2
GGAUCUUAUCGAUCUAACAAAAAAGACAAAUCUGCCACAAAGCUUGAGGGCAUCUUCGGAUGCAGAGGCGGCAGCAUUCGGUGGCGCGAUAGAGCCAACGUUGUAAACUAUGACACGCAAAACGCGCGCUCCGUUGAAUGGAGUUUAUCAUG [C8A A49G C76A C93A C103G C105A U127C] | ≤ -4.2
GGAUCUUAUCGAUCUAACAAAAAAGACUAAUCUGCCACAAAGCUUGAGAGCAUCUUCGGAUGCAGAGGCGGCAGCCUUUGGUGGCGCGAUAGUGCCAACGUUCUUAACUAUGACACGCAAAACGCGUGCUCCGUUGAAUGGAGUUUAUCAUG [C8A A28U C79U C93U C105U] | ≤ -4.2
GGAUCUUAUCGAUCUAACAAAAAAGACAAAUCUGCCACAAAGCUUGAGAGCAUCUUCGGAUGCAGAGGCGGCGGCCUUCGGUGGCGCGAUAGAGCCAACGUUCUCAACUAUGACACGCAAAACGCGUGCUCCGUUGAAUGGAGUUCAUCAUG [C8A A73G C93A U146C] | -4.17
GGAUCUUAUCGAUCUAACAAAAAAGACAAAUCUGCCACAAAGCUUGAGAGCAUCUUCGGAUGCAGAGGCGGCAGCCUUCGGUGGCGCGAUAGCGCCAACGUUCUCAACUAUGACACGCAAAACGCGUGCUCCGUUGAAUGGCGUUUAUCAUG [C8A A142C] | -4.11
GGAUCUUAUCGAUCUAACAAAAAAGUCAAAUCUGCCACAAAGCUUGAGUGCAUCUUCGGAUGCAGAGGCGGCAGCCUUCGGUUGCGCGAUAGCGCCAACGGUCUCAACUAUGACACGUAAAACGCGUGCUCCGUUGACUGGAGUUUAUCAUG [C8A A26U A49U G83U U101G C118U A138C] | ≤ -4.2
